Source: patent publication US20240067748A1 (NONA BIOSCIENCES SUZHOU, published 2024)
Substitutions are numbered along the chain they refer to.

Experiments:
human Trop2 on cells [1] = biological target: T1, human Trop2 on cells (human, UniProt P09758 27-323); assay: cell-based or functional assay
T1 sequence (looked up): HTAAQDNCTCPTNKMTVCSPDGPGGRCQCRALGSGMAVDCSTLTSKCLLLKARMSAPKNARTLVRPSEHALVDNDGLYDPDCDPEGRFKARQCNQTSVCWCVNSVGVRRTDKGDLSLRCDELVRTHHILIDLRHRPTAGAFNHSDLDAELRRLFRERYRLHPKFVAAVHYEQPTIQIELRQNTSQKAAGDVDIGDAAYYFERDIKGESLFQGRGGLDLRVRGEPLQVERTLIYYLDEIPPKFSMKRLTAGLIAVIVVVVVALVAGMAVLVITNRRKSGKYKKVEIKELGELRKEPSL

[2] = biological target: T2, mouse Trop2-his protein (Sino Biological, #50922-M08H) (mouse, UniProt Q8BGV3 25-270); assay: ELISA, plate coated with mouse Trop2-his protein, anti-human IgG (H+L)-HRP, OD450 nm
T2 construct: bought protein; also called mouse Trop2 protein; not shown: his tag
T2 sequence (looked up): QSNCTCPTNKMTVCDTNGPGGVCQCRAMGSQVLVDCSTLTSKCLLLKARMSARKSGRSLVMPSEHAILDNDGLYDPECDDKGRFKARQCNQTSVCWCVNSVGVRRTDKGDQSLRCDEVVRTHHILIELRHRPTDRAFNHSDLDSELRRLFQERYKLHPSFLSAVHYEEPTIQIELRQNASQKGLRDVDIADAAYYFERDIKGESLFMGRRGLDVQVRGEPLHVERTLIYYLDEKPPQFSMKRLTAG
Protocol: An ELISA plate was coated with 100 μL of 1 μg/mL mouse Trop2-his protein (Sino Biological, #50922-M08H) in PBS at 4° C. overnight. The plate was blocked with 200 μL of PBST (PBS+0.05% tween 20)+2% BSA at 37° C. for 1 h. The plate was washed 4 times with PBST. 100 μL of Trop2 antibody diluted in a gradient (5-fold dilution, starting concentration: 33.33 nM) was added to the ELISA plate and the plate was incubated at 37° C. for 1 h. The plate was washed 4 times with PBST. 100 μL of anti-human IgG (H+L)-HRP (Sigma, #A8667) diluted in 1:4000 was added and the plate was incubated at 37° C. for 1 h. The plate was washed 4 times with PBST. 100 μL of TMB substrate (Invitrogen, #88-7025-88) was added and the plate was incubated at room temperature for 5 min, and then 50 μL of stop buffer (BBI life sciences, #E661006-0200) was added to stop the reaction. The OD450 nm reading was recorded using a microplate reader (Perkin Elmer, EnSpire).

human Trop2 on cells [3] = biological target: T1, human Trop2 on cells; assay: cell-based or functional assay; remark: listed apart in the source
[4] = biological target: T3, human TROP2 protein (Sino Biological, #10428-H08H) (human, UniProt P09758 27-274); assay: BLI, Octet RED96, AHC sensor
T3 construct: bought protein; also called human Trop2 protein antigen (His tag); not shown: His tag
T3 sequence (looked up): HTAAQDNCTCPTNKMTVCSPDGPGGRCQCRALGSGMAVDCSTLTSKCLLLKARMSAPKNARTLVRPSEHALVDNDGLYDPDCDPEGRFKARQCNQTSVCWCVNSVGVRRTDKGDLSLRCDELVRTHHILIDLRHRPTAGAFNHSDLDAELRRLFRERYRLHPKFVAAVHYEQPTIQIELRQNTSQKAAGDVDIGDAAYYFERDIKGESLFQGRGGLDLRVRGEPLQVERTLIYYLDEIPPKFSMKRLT
How it was run: (§1)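 Affinity and on/off rate constants came from real-time association and dissociation traces. The sensor carried human or monkey Trop2 loaded at 200 nM, and 40 nM antibody was applied for 3 min, then buffer for 5 min, at 30° C in PBS pH 7.4 containing 0.1% BSA and 0.02% Tween 20.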

[5] = biological target: T3, human TROP2 protein (Sino Biological, …); assay: BLI epitope binning (Octet), biotinylated human Trop2 on SA sensor; row = primary antibody; competitor (secondary antibody, column): PR001142
Protocol: (§2) The biotinylated mixture after the incubation was washed three times with PBS and a Zeba centrifugal desalting column (Thermo Fisher, #89882) to remove excess biotin. The biotinylated Trop2 protein was captured by an SA sensor (Pall ForteBio, #18-5019) with the loading baseline set at 0.3 nm. The sensor was immersed in a well of assay buffer containing 50 nM primary antibody for 300 s. […] The binding assay was performed by comparing the binding of the secondary antibody to Trop2 in the presence of the primary antibody to the blocking of the primary antibody itself.

[6] = biological target: T3, human TROP2 protein (Sino Biological, …); assay: BLI epitope binning (Octet), biotinylated human Trop2 on SA sensor; row = primary antibody; competitor (secondary antibody, column): PR001165
Protocol: as §2

[7] = biological target: T4, monkey Trop2 protein (Sino Biological, #90893-C08H) (monkey, UniProt A0A2K5UE71 27-274); assay: BLI, Octet RED96; ratio against KD for human Trop2 protein
T4 construct: bought protein; also called monkey Trop2 protein antigen (His tag)
T4 sequence: T3 sequence (looked up) with M36V, K46E, S67N, I204V
How it was run: as §1

B1: PR001142 (antibody, human IgG1, kappa, V domains shown)
VH: QVQLQESGPGLVKPSGTLSLTCAVSGDSISSNNWWSWVRQPPGKGLEWIGEIYPGGNPNYNPSLKSRVTISVDKSKNQFSLKLNSVTAADTAVYYCARGSGVISYFDYWGQGTLVTVSS
VL: DIQMTQSPSTLSASVGDRVTITCRASQSIGHWLAWYQQKPGKAPKLLIYKASSLESGVPSRFRGSGSGTEFTLTISSLQPDDFATYYCQQYSSYSPITFGQGSRLEIKR
notes: fully human IgG1/kappa; also called antibody No. (9)
ADCP (Donor A1925144#) EC50(nM), BxPC-3 + macrophages (human Trop2 on cells [1]): 0.0362 nM | ADCP (Donor A1925144#) Maximum phagocytosis % (human Trop2 on cells [1]): 12% | ADCP (Donor A1925144#) Minimum phagocytosis % (human Trop2 on cells [1]): 0.861% | ADCP (Donor A19143143#) EC50(nM), BxPC-3 + macrophages (human Trop2 on cells [1]): 0.199 nM | ADCP (Donor A19143143#) Maximum phagocytosis % (human Trop2 on cells [1]): 36.4% | ADCP (Donor A19143143#) Minimum phagocytosis % (human Trop2 on cells [1]): 1.75% | binding result [2]: no binding | ADCC (donor 1152#) EC50(nM), BxPC-3 + PBMC, LDH release (human Trop2 on cells [3]): 0.0279 nM | ADCC (donor 1152#) Maximum cell killing % (human Trop2 on cells [3]): 41.6% | ADCC (donor 1152#) Minimum cell killing % (human Trop2 on cells [3]): 4.47% | ADCC (donor 2153#) EC50(nM), BxPC-3 + PBMC, LDH release (human Trop2 on cells [3]): 0.0547 nM | ADCC (donor 2153#) Maximum cell killing % (human Trop2 on cells [3]): 58.8% | ADCC (donor 2153#) Minimum cell killing % (human Trop2 on cells [3]): 9.28% | Kd [4]: 0.323 nM | Response [4]: 0.39 | koff [4]: 8.78e-05 s⁻¹ | kon [4]: 272000 M⁻¹ s⁻¹ | Inhibition rate (%) [5]: 101% | Inhibition rate (%) [6]: 99.2% | KD (monkey)/KD (human) [7]: 0.81

B2: PR001166 (antibody, human IgG1, kappa, V domains shown)
VH: QVQLQESGPGLVKPSETLSLTCAVSGYSISSGYFWAWIRQPPGKGLEWIGSIYHSGRTHYNPSLKSRVIISLDTSKNQFSLKLRSVTAADSAVYYCAREGYASGSYYWGQGTLVTVSS
VL: EIVMTQSPATLSVSPGERATLSCRSSQSVNNYLAWFQQKPGQAPRLLIYDSSTRATGIPARFSGSGSGTEFTLTISSLQSEDFAFYFCQQYENWPLTFGGGTKVEIKR
notes: fully human IgG1/kappa; also called antibody No. (27)
ADCP (Donor A1925144#) EC50(nM), BxPC-3 + macrophages (human Trop2 on cells [1]): 0.0311 nM | ADCP (Donor A1925144#) Maximum phagocytosis % (human Trop2 on cells [1]): 9.33% | ADCP (Donor A1925144#) Minimum phagocytosis % (human Trop2 on cells [1]): 2.05% | ADCP (Donor A19143143#) EC50(nM), BxPC-3 + macrophages (human Trop2 on cells [1]): 0.161 nM | ADCP (Donor A19143143#) Maximum phagocytosis % (human Trop2 on cells [1]): 40.2% | ADCP (Donor A19143143#) Minimum phagocytosis % (human Trop2 on cells [1]): 2.04% | binding result [2]: binds | ADCC (donor 1152#) EC50(nM), BxPC-3 + PBMC, LDH release (human Trop2 on cells [3]): 0.02 nM | ADCC (donor 1152#) Maximum cell killing % (human Trop2 on cells [3]): 36.5% | ADCC (donor 1152#) Minimum cell killing % (human Trop2 on cells [3]): 3.25% | ADCC (donor 2153#) EC50(nM), BxPC-3 + PBMC, LDH release (human Trop2 on cells [3]): 0.0347 nM | ADCC (donor 2153#) Maximum cell killing % (human Trop2 on cells [3]): 69.1% | ADCC (donor 2153#) Minimum cell killing % (human Trop2 on cells [3]): 11.9% | Kd [4]: < 0.001 nM | Response [4]: 0.324 | koff [4]: < 1e-07 s⁻¹ | kon [4]: 470000 M⁻¹ s⁻¹ | Inhibition rate (%) [5]: 85.4% | Inhibition rate (%) [6]: 18.5%
